{"source": "the RNAGym collection of RNA variant scans (doi:10.7554/elife.90254)", "parents": {"B1": {"name": "OR4K15 (parent)", "chain": "GUUAACGGUCAUAGGCCAUGGAAACUAGGAGCACCAUUUCGCUGCCAGUGAAGAAAUGAACAAAGAAAAUCUGGGCCAGGCAGGCAUCAAAAGAAAUAGUCUUGCGCUCAACCAGAAAGUCUGUAAUCAUUUUAAGGGUA"}}, "data": [{"variants_of": "B1", "test": "self-cleavage, relative activity (ratio to wild type); higher = more cleavage; in vitro, sequencing; the parent is a self-cleaving ribozyme", "values": [{"variant": "U87C U130G", "self-cleavage": 0.15}, {"variant": "A91U A129G", "self-cleavage": 1.13}, {"variant": "A89C A110G", "self-cleavage": 0.18}, {"variant": "U87C A89G", "self-cleavage": 1.73}, {"variant": "A90G A110G", "self-cleavage": 0.1}, {"variant": "A86U C101A", "self-cleavage": 0.09}, {"variant": "U87A G137A", "self-cleavage": 1.96}, {"variant": "A90G A91G", "self-cleavage": 0.55}, {"variant": "A91U U124A", "self-cleavage": 0.84}, {"variant": "A86G A114C", "self-cleavage": 0.06}, {"variant": "A86G A114G", "self-cleavage": 0.48}, {"variant": "A86G A114U", "self-cleavage": 0.03}, {"variant": "A89U A117U", "self-cleavage": 0.7}, {"variant": "A89U A117G", "self-cleavage": 2.46}, {"variant": "C85U A91G", "self-cleavage": 0.52}, {"variant": "C88A U130C", "self-cleavage": 1.42}, {"variant": "A92C G115A", "self-cleavage": 0.36}, {"variant": "A86U", "self-cleavage": 1.77}, {"variant": "A86G", "self-cleavage": 1.16}, {"variant": "A86C", "self-cleavage": 1.22}, {"variant": "U87C A129U", "self-cleavage": 0.73}, {"variant": "U87C A129G", "self-cleavage": 1.14}, {"variant": "A91U U120C", "self-cleavage": 1.64}, {"variant": "A89C U130C", "self-cleavage": 1.12}, {"variant": "A89G A110G", "self-cleavage": 0.12}, {"variant": "A86U U139A", "self-cleavage": 1.53}, {"variant": "U87C G138A", "self-cleavage": 1.2}, {"variant": "A91U G138A", "self-cleavage": 0.82}, {"variant": "A86U A91U", "self-cleavage": 1.77}, {"variant": "A90G U100A", "self-cleavage": 0.31}, {"variant": "A90G U100C", "self-cleavage": 2.32}, {"variant": "A86U U124A", "self-cleavage": 1.02}, {"variant": "A86G A110G", "self-cleavage": 0.16}, {"variant": "C85A U100C", "self-cleavage": 0.72}, {"variant": "U87A A95G", "self-cleavage": 0.76}, {"variant": "A89G U103C", "self-cleavage": 0.55}, {"variant": "A86G U103C", "self-cleavage": 0.45}, {"variant": "A86G U103A", "self-cleavage": 0.93}, {"variant": "U87C G137A", "self-cleavage": 2.3}, {"variant": "U87A A125G", "self-cleavage": 0.68}, {"variant": "A90C U120A", "self-cleavage": 1.88}, {"variant": "A89U", "self-cleavage": 1.65}, {"variant": "A89G", "self-cleavage": 1.11}, {"variant": "A89C", "self-cleavage": 1.54}, {"variant": "A86U A140G", "self-cleavage": 1.62}, {"variant": "A90U A110U", "self-cleavage": 0.89}, {"variant": "A90U A110G", "self-cleavage": 0.08}, {"variant": "U87A A89C", "self-cleavage": 0.99}, {"variant": "A86C U132C", "self-cleavage": 0.9}, {"variant": "U87C A111G", "self-cleavage": 0.03}, {"variant": "U87C A111C", "self-cleavage": 0.02}, {"variant": "U87C C109U", "self-cleavage": 0.43}, {"variant": "A89G A118C", "self-cleavage": 0.01}, {"variant": "C88A A111G", "self-cleavage": 0}, {"variant": "A86G U131C", "self-cleavage": 1.23}, {"variant": "A86G C112A", "self-cleavage": 0}, {"variant": "A89G U122C", "self-cleavage": 1.03}, {"variant": "A90G U124C", "self-cleavage": 0.78}, {"variant": "U87C", "self-cleavage": 0.94}, {"variant": "U87G", "self-cleavage": 0.74}, {"variant": "U87A", "self-cleavage": 1.65}, {"variant": "C85G A86U", "self-cleavage": 0.31}, {"variant": "A86C U102C", "self-cleavage": 1.29}, {"variant": "C88A A94G", "self-cleavage": 1.5}, {"variant": "A86G A118G", "self-cleavage": 1.45}, {"variant": "A86G A118U", "self-cleavage": 0.52}, {"variant": "A91U A92G", "self-cleavage": 1.04}, {"variant": "U87G U103C", "self-cleavage": 0.22}, {"variant": "A89C U103C", "self-cleavage": 0.8}, {"variant": "A90G A116U", "self-cleavage": 0.5}, {"variant": "C88U A95G", "self-cleavage": 2.12}, {"variant": "A90G A140G", "self-cleavage": 0.65}, {"variant": "A90G A140U", "self-cleavage": 0.74}, {"variant": "A90U A94G", "self-cleavage": 1.48}, {"variant": "A89G G99A", "self-cleavage": 1.15}, {"variant": "U87A A90G", "self-cleavage": 1.29}, {"variant": "U87C U103G", "self-cleavage": 0.01}, {"variant": "U87C U103C", "self-cleavage": 0.95}, {"variant": "A90U A111U", "self-cleavage": 0.11}, {"variant": "A90U G99A", "self-cleavage": 0.52}, {"variant": "U87G A125G", "self-cleavage": 0.07}, {"variant": "U87C U124C", "self-cleavage": 0.83}, {"variant": "A91G U100C", "self-cleavage": 2.19}]}]}
